B1: Ly460 (bispecific antibody, human IgG1, kappa)
heavy: QVTLKESGPALVKPTQTLTLTCTFSGFSLSTSGTCVSWIRQPPGKALEWLATICWEDSKGYNPSLKSRLTISKDTSKNQAVLTMTNMDPVDTATYYCARREDSGYFWFPYWGQGTLVTVSSASTKGPSVFPLAPSSKSTSGGTAALGCLVKDYFPEPVTVSWNSGALTSGVHTFPAVLQSSGLYSLSSVVTVPSSSLGTQTYICNVNHKPSNTKVDKKVEPKSCDKTHTCPPCPAPELLGPSVFLFPPKPKDTLMISRTPEVTCVVVDVSHEDPEVKFNWYVDGVEVHNAKTKPREEQYNSTYRVVSVLTVLHQDWLNGKEYKCKVSNKALPAPIEKTISKAKGQPREPQVYTLPPSREEMTKNQVSLTCLVKGFYPSDIAVEWESNGQPENNYKTTPPVLDSDGSFFLYSKLTVDKSRWQQGNVFSCSVMHEALHNHYTQKSLSLSPGGGGGSGGGGSGGGGSGGGGSDIQMTQSPSSLSASVGDRVTITCRASQDIRSNLNWYQQKPGGAVKLLIYYTSRLHSGVPSRFSGSGSGTDYTLTISSLQPEDFATYFCQQSEKLPRTFGGGTKVEIRRTVAAPSVFIFPPSDEQLKSGTASVVCLLNNFYPREAKVQWKVDNALQSGNSQESVTEQDSKDSTYSLSSTLTLSKADYEKHKVYACEVTHQGLSSPVTKSFNRGEC
light: NIQMTQSPSSLSASVGDRVTITCKAGQNVNNYLAWYQQKPGKAPKVLIFNANSLQTGVPSRFSGSGSGTDFTLTISSLQPEDFATYYCQQYNSWPTFGGGTKVEIKRTVAAPSVFIFPPSDEQLKSGTASVVCLLNNFYPREAKVQWKVDNALQSGNSQESVTEQDSKDSTYSLSSTLTLSKADYEKHKVYACEVTHQGLSSPVTKSFNRGEC
chain: QVQLVQSGAEVKKPGASVKVSCKASGYTFAGFEMHWVRQAPGQGLEWMGAIDPKTGGTDYNQKFKDRVTMTRDTSISTAYMELSRLRSDDTAVYYCARDLGYFDVWGQGTLVTVSSASTKGPSVFPLAPSSKSTSGGTAALGCLVKDYFPEPVTVSWNSGALTSGVHTFPAVLQSSGLYSLSSVVTVPSSSLGTQTYICNVNHKPSNTKVDKKVEPKSCDK
notes: Three-chain format: Ly516 heavy chain fused to Ly1630 light chain; Ly516 light chain; Ly1630 VH-CH1
B2: Ly510 (bispecific antibody, human IgG2, kappa)
heavy: QVTLKESGPALVKPTQTLTLTCTFSGFSLSTSGTCVSWIRQPPGKALEWLATICWEDSKGYNPSLKSRLTISKDTSKNQAVLTMTNMDPVDTATYYCARREDSGYFWFPYWGQGTLVTVSSASTKGPSVFPLAPCSRSTSESTAALGCLVKDYFPEPVTVSWNSGALTSGVHTFPAVLQSSGLYSLSSVVTVPSSNFGTQTYTCNVDHKPSNTKVDKTVERKCCVECPPCPAPPVAPSVFLFPPKPKDTLMISRTPEVTCVVVDVSHEDPEVQFNWYVDGVEVHNAKTKPREEQFNSTFRVVSVLTVVHQDWLNGKEYKCKVSNKGLPAPIEKTISKTKGQPREPQVYTLPPSREEMTKNQVSLTCLVKGFYPSDIAVEWESNGQPENNYKTTPPMLDSDGSFFLYSKLTVDKSRWQQGNVFSCSVMHEALHNHYTQKSLSLSPGGGGGSGGGGSGGGGSGGGGSDIQMTQSPSSLSASVGDRVTITCRASQDIRSNLNWYQQKPGGAVKLLIYYTSRLHSGVPSRFSGSGSGTDYTLTISSLQPEDFATYFCQQSEKLPRTFGGGTKVEIRGGGGSGGGGSGGGGSGGGGSQVQLVQSGAEVKKPGASVKVSCKASGYTFAGFEMHWVRQAPGQGLEWMGAIDPKTGGTDYNQKFKDRVTMTRDTSISTAYMELSRLRSDDTAVYYCARDLGYFDVWGQGTLVTVSS
light: B1 light
notes: Anti-PD-1/CD137: Ly516 heavy chain (other constant region than Ly456) fused to Ly1630 scFv (VL-VH); Ly516 light chain
B3: Ly456 (bispecific antibody, human IgG1, kappa)
heavy: QVTLKESGPALVKPTQTLTLTCTFSGFSLSTSGTCVSWIRQPPGKALEWLATICWEDSKGYNPSLKSRLTISKDTSKNQAVLTMTNMDPVDTATYYCARREDSGYFWFPYWGQGTLVTVSSASTKGPSVFPLAPSSKSTSGGTAALGCLVKDYFPEPVTVSWNSGALTSGVHTFPAVLQSSGLYSLSSVVTVPSSSLGTQTYICNVNHKPSNTKVDKKVEPKSCDKTHTCPPCPAPELLGPSVFLFPPKPKDTLMISRTPEVTCVVVDVSHEDPEVKFNWYVDGVEVHNAKTKPREEQYNSTYRVVSVLTVLHQDWLNGKEYKCKVSNKALPAPIEKTISKAKGQPREPQVYTLPPSREEMTKNQVSLTCLVKGFYPSDIAVEWESNGQPENNYKTTPPVLDSDGSFFLYSKLTVDKSRWQQGNVFSCSVMHEALHNHYTQKSLSLSPGGGGGSGGGGSGGGGSGGGGSDIQMTQSPSSLSASVGDRVTITCRASQDIRSNLNWYQQKPGGAVKLLIYYTSRLHSGVPSRFSGSGSGTDYTLTISSLQPEDFATYFCQQSEKLPRTFGGGTKVEIRGGGGSGGGGSGGGGSGGGGSQVQLVQSGAEVKKPGASVKVSCKASGYTFAGFEMHWVRQAPGQGLEWMGAIDPKTGGTDYNQKFKDRVTMTRDTSISTAYMELSRLRSDDTAVYYCARDLGYFDVWGQGTLVTVSS
light: B1 light
notes: Anti-PD-1/CD137: Ly516 heavy chain fused at C-terminus to Ly1630 scFv (VL-VH); Ly516 light chain
B4: Ly512 (bispecific antibody, human IgG2, kappa)
heavy: QVTLKESGPALVKPTQTLTLTCTFSGFSLSTSGTCVSWIRQPPGKALEWLATICWEDSKGYNPSLKSRLTISKDTSKNQAVLTMTNMDPVDTATYYCARREDSGYFWFPYWGQGTLVTVSSASTKGPSVFPLAPCSRSTSESTAALGCLVKDYFPEPVTVSWNSGALTSGVHTFPAVLQSSGLYSLSSVVTVPSSNFGTQTYTCNVDHKPSNTKVDKTVERKCCVECPPCPAPPVAPSVFLFPPKPKDTLMISRTPEVTCVVVDVSHEDPEVQFNWYVDGVEVHNAKTKPREEQFNSTFRVVSVLTVVHQDWLNGKEYKCKVSNKGLPAPIEKTISKTKGQPREPQVYTLPPSREEMTKNQVSLTCLVKGFYPSDIAVEWESNGQPENNYKTTPPMLDSDGSFFLYSKLTVDKSRWQQGNVFSCSVMHEALHNHYTQKSLSLSPGK
light: NIQMTQSPSSLSASVGDRVTITCKAGQNVNNYLAWYQQKPGKAPKVLIFNANSLQTGVPSRFSGSGSGTDFTLTISSLQPEDFATYYCQQYNSWPTFGGGTKVEIKRTVAAPSVFIFPPSDEQLKSGTASVVCLLNNFYPREAKVQWKVDNALQSGNSQESVTEQDSKDSTYSLSSTLTLSKADYEKHKVYACEVTHQGLSSPVTKSFNRGECGGGGSGGGGSGGGGSGGGGSDIQMTQSPSSLSASVGDRVTITCRASQDIRSNLNWYQQKPGGAVKLLIYYTSRLHSGVPSRFSGSGSGTDYTLTISSLQPEDFATYFCQQSEKLPRTFGGGTKVEIRGGGGSGGGGSGGGGSGGGGSQVQLVQSGAEVKKPGASVKVSCKASGYTFAGFEMHWVRQAPGQGLEWMGAIDPKTGGTDYNQKFKDRVTMTRDTSISTAYMELSRLRSDDTAVYYCARDLGYFDVWGQGTLVTVSS
notes: Anti-PD-1/CD137: Ly516 heavy chain; Ly516 light chain fused to Ly1630 scFv (VL-VH)

Experiments:
[1] = biological target: T1, human CD137 ECD protein (His tag) (human, UniProt Q07011 24-186); assay: bridging ELISA: human CD137 ECD (His tag) coated, antibody titrated, then human PD-1 ECD (mouse IgG2a Fc tag), HRP anti-mouse IgG2a Fc; A450-A620
T1 construct: extracellular domain; also called recombinant human CD137; not shown: His tag
Method: Exemplary anti-PD-1/CD137 bi-specific antibodies were analyzed by ELISA for their simultaneous binding to recombinant human PD-1 and human CD137. Briefly, human CD137 ECD protein (His tag) was diluted and coated onto an ELISA plate with a volume of 100 μL/well by incubation at 4° C. overnight. The next day, the plate was blocked with PBST-BSA buffer, then serially diluted samples of anti-PD-1/CD137 bi-specific antibodies were pipetted into appropriate wells at 50 μL/well, and the plate was incubated for 1 hour followed by washing. The extracellular domain (ECD) of human PD-1 protein (mouse IgG2a Fc tag) was added into the plate at 50 μL/well. After 1-hour incubation at room temperature, HRP-conjugated anti-Mouse IgG, Fc G2a specific antibody was added into the plate at 100 μL/well. The plate was incubated for 1 hour at room temperature followed by washing. TMB substrate solution was added at 100 μL/well and the color development was stopped by adding 100 uL/well Stop Solution (2N H₂SO₄). Absorbance at 450 nm and 620 nm was read by Tecan F200 Pro plate reader. GraphPad 7.0, “[Agonist] vs. response—Variable slope (four parameters)” was used to plot the binding data and calculate binding EC50 values.

[2] = biological target: T2, human PD-1 expressed on cells (human, UniProt Q15116 25-288); assay: flow cytometry (FACS), MFI, CHO cells expressing human PD-1
T2 construct: whole, on cells; also called human PD-1 over-expressed on the CHO cells; Jurkat/NFkB-Luci/PD-1 cells
T2 sequence (Q15116 25-288): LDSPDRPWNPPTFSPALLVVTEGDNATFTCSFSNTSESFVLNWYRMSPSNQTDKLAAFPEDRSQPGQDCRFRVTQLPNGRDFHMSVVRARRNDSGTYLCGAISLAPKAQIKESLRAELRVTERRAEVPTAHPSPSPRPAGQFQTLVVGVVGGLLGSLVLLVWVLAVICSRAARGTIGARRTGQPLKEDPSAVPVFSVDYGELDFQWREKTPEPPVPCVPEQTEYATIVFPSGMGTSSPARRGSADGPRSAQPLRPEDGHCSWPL
Method: (§1) Exemplary anti-PD-1/CD137 bi-specific antibodies were analyzed by FACS for their binding properties to human PD-1 and/or human CD137 expressed on CHO cells. Briefly, cultured cells were harvested, counted and cell viability was evaluated using the Trypan Blue exclusion method. Viable cells were then adjusted to 2×10⁶ cells per mL in PBS containing 2% BSA. 100 μL of this cell suspension were further aliquoted per well into a V-bottom 96-well plate. […] After incubation for 2 hours at 4° C., cells were centrifuged (3 min, 1000× g), washed with 250 μL/well BSA-containing FACS Stain Buffer, resuspended and incubated for an additional 1 hour at 4° C. with 100 μL/well fluorochrome-conjugated anti-IgG antibody for detection of the bisepecific antibody. Cells were then washed with 250 μL/well BSA-containing FACS Stain Buffer, resuspended in 100 μL/well FACS Stain Buffer, acquired and analyzed using a FACS machine. Binding of the bispecific antibodies to human PD-1 or human CD137 expressing CHO cells were evaluated and the mean fluorescence intensity is plotted in histograms or dot plots.

[3] = biological target: T3, human CD137 expressed on cells (human, UniProt Q07011 24-255); assay: flow cytometry (FACS), MFI, CHO cells expressing human CD137
T3 construct: whole, on cells; also called 4-1BB; TNFRSF9
T3 sequence (Q07011 24-255): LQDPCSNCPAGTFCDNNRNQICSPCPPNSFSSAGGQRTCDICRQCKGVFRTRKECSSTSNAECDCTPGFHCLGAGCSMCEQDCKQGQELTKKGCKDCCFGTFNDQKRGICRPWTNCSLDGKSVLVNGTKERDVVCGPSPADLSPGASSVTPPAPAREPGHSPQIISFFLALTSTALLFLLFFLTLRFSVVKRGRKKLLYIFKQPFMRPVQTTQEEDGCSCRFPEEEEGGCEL
Method: as §1

Binder	binding result [1]	EC50 (read off the curve) [2] [µg/mL]	binding result [3]	EC50 (read off the curve) [1] [µg/mL]
B1	binds	~0.2	binds	
B2		~0.2		~0.02
B3		~0.2		~0.02
B4		~0.1		~0.02
